According to the RNAGym collection of RNA variant scans (doi:10.1073/pnas.2313332121):
Fewer inactive variants are shown than the library holds.

B1: TPR 5TU (parent)
chain: GGAUCUUCUCGAUCUAACAAAAAAGACAAAUCUGCCACAAAGCUUGAGAGCAUCUUCGGAUGCAGAGGCGGCAGCCUUCGGUGGCGCGAUAGCGCCAACGUUCUCAACUAUGACACGCAAAACGCGUGCUCCGUUGAAUGGAGUUUAUCAUG

Variants of: B1
Experiment: polymerase ribozyme fitness, log enrichment relative to wild type (log ratio); higher = more active; in vitro selection for triplet polymerase activity
How it was run: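 Mutant libraries of each subunit of a heterodimeric triplet polymerase ribozyme were built by PCR and transcribed. Each library went through one round of in vitro selection in triplicate: annealing with biotinylated primer, partner subunit and triplets, frozen incubation at −7 °C, gel excision of extended constructs, streptavidin-bead capture and RT-PCR. Input and output libraries were Illumina-sequenced; only genotypes with ≥10 input reads and ≥1 read per output were kept. Fitness is log2(genotype enrichment/wild-type enrichment), using inverse-variance-weighted replicate averages.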

Row | Variant | polymerase ribozyme fitness (log ratio)
1 | A23C C75G C103U | ≤ -4.2
2 | A22U U56G | -0.902
3 | A23G A40C G81A U145C | -3.98
4 | A23G C72U | -3.74
5 | A23C C93U G141U | ≤ -4.2
6 | A23U G48C C54A C75G G80C C96U G140A | ≤ -4.2
7 | A23U C43A C69G C99G U139A U144A | ≤ -4.2
8 | A23G C32G G70A C85G | ≤ -4.2
9 | A22U G59A | -0.47
10 | A23C C43U U53G G81C C87A G143A | ≤ -4.2
11 | A22U C57A C96G A97U C118G A119C | -2.85
12 | A23G U56A C63A C85U C93U | ≤ -4.2
13 | A23C G46C A47G G84U C87A C93U U109G | ≤ -4.2
14 | A23U A24C G25U G94C A119C C123A G141C | ≤ -4.2
15 | A23G A40G G50U C76A G84C | ≤ -4.2
16 | A23U C114U | -3.88
17 | A23G U61G C93G G126A | ≤ -4.2
18 | A24C G42U U44G U61A G80C A110U | ≤ -4.2
19 | A23U C125A | -3.51
20 | A23U G74U U82G | ≤ -4.2
21 | A23U G50A A60C A66U C85U C95G A122C | ≤ -4.2

Row | Variant | polymerase ribozyme fitness (log ratio)
22 | A23C C95U | -4.12
23 | A23G C38G C95U C114G | -3.85
24 | A22U U102G | -2.64
25 | A24C | -3.22
26 | A23G G50C G84U C85G A150C | -3.98
27 | A22U G58C G92U G124C | -0.925
28 | A22U C114A | -3.29
29 | A23U C43G G48A G92A A98G A147U G152C | -3.84
30 | A23U G94A | -3.99
31 | A24C A73U C79U G88U G126A | ≤ -4.2
32 | A24C C54A A60G A73U U77G | ≤ -4.2
33 | A23U A26C A30U U56A A60C G86U G88C C95G G124U A137U U148C | ≤ -4.2
34 | A22U G48C C51U C116G G124A A150G | ≤ -4.2
35 | A23U U77C C87U | ≤ -4.2
36 | A23G C27U C125A G143U | ≤ -4.2
37 | A22U C96G | -0.148
38 | A22U C96A | -0.026
39 | A23G C57U | -2.27
40 | A23G C27G A40U C75U G81C G94C U101A U109A | ≤ -4.2
41 | A23G A37G A39G U44A A64U C75U C95U C108A A142U | ≤ -4.2
42 | A24C G34C G50C U134A | ≤ -4.2

Row | Variant | polymerase ribozyme fitness (log ratio)
43 | A24C G65A G84C A97G G100U C108G G141C | ≤ -4.2
44 | A22U C123G | -0.0344
45 | A23U G59U C93U | ≤ -4.2
46 | A22U G83C | -1.73
47 | A23C A98U A113U | -4.18
48 | A23G C27U A29C C32A C36G C85U C95A U127G | -4.14
49 | A23G C76A | -2.49
50 | A23U A29U C79G G81U C93G C149U | ≤ -4.2
51 | A23U G68C C76G G80C A89U U148G | ≤ -4.2
52 | A23U G42C C54U C76A C93A U127C G133C | ≤ -4.2
53 | A23C A28C G46A U55A C96U | ≤ -4.2
54 | A23C A41C C75A G84A A115U G152A | ≤ -4.2
55 | A22U G42C G80A A91G C95G A98U | ≤ -4.2
56 | A23C U33A A41G U45A C87G C103G | ≤ -4.2
57 | A23U C51U C93U G100U C123G | ≤ -4.2
58 | A24C A37G G48C C63U U78G G88C U144G | ≤ -4.2
59 | A23C C35G G58A C95A C99A C149U | ≤ -4.2
60 | A23U U55A C57U G68U A73G G80C G94U U104C | ≤ -4.2
61 | A23C C54U U55A G71A A122G | ≤ -4.2
62 | A23U U44A U45A A66U C95U A120G | ≤ -4.2
63 | A23U A52G C85U A89G A106G G141U U148G | ≤ -4.2

Row | Variant | polymerase ribozyme fitness (log ratio)
64 | A22U C76G C87G U101G G140C | -4.19
65 | A23U G46U C87U G88U A119G A120C G133U | ≤ -4.2
66 | A23G C93U | -3.77
67 | A23C A30C G50A A66G C96A A98U G128C | ≤ -4.2
68 | A23G G25C A40C G58A U61A G80C G88C | ≤ -4.2
69 | A24C C95A C96G U144C | ≤ -4.2
70 | A23C C87G A91G C99A C103G | ≤ -4.2
71 | A23C A24C U61G A110U | ≤ -4.2
72 | A22U C108U | -2.85
73 | A23U A40G U77A G84A U146G | ≤ -4.2
74 | A23U C35A A41C U55G G86C C95G C105A | ≤ -4.2
75 | A23U C54A G83U U102G | ≤ -4.2
76 | A23U C87A G133A | ≤ -4.2
77 | A22U U148A | -2.76
78 | A23G A41C U90G A110G | ≤ -4.2
79 | A23U C93U G126U | ≤ -4.2
80 | A23U G88U C116U G140U G143U U146G | ≤ -4.2
81 | A23C C32A U56A A60G C103A A110G G112C | ≤ -4.2
82 | A22U G50U C96G U145G | -0.544
83 | A22U C75G | -3.65
84 | A23G A40G G42C | ≤ -4.2
